{"source": "patent US20250092426", "about": "“CAS ENDONUCLEASES AND RELATED METHODS” (Flagship Pioneering Innovations VII, LLC, published 2025)", "binders": {"B1": {"name": "BFP-to-GFP template RNA ; BFP reporter protospacer (ssRNA ; dsDNA)", "RNA": "GCCGAAGCACUGCACGCCGUGUUUUAGAGCUAGAAAUAGCAAGUUAAAAUAAGGCUAGUCCGUUAUCAACUUGAAAAAGUGGCACCGAGUCGGUGCACCCUGACGUACGGCGUGCAGUGCUU", "DNA 1": "GCCGAAGCACTGCACGCCGT", "DNA 2": "ACGGCGTGCAGTGCTTCGGC"}}, "molecular_target": "T1, CasEnd-33 (synthetic construct)", "T1 chain": "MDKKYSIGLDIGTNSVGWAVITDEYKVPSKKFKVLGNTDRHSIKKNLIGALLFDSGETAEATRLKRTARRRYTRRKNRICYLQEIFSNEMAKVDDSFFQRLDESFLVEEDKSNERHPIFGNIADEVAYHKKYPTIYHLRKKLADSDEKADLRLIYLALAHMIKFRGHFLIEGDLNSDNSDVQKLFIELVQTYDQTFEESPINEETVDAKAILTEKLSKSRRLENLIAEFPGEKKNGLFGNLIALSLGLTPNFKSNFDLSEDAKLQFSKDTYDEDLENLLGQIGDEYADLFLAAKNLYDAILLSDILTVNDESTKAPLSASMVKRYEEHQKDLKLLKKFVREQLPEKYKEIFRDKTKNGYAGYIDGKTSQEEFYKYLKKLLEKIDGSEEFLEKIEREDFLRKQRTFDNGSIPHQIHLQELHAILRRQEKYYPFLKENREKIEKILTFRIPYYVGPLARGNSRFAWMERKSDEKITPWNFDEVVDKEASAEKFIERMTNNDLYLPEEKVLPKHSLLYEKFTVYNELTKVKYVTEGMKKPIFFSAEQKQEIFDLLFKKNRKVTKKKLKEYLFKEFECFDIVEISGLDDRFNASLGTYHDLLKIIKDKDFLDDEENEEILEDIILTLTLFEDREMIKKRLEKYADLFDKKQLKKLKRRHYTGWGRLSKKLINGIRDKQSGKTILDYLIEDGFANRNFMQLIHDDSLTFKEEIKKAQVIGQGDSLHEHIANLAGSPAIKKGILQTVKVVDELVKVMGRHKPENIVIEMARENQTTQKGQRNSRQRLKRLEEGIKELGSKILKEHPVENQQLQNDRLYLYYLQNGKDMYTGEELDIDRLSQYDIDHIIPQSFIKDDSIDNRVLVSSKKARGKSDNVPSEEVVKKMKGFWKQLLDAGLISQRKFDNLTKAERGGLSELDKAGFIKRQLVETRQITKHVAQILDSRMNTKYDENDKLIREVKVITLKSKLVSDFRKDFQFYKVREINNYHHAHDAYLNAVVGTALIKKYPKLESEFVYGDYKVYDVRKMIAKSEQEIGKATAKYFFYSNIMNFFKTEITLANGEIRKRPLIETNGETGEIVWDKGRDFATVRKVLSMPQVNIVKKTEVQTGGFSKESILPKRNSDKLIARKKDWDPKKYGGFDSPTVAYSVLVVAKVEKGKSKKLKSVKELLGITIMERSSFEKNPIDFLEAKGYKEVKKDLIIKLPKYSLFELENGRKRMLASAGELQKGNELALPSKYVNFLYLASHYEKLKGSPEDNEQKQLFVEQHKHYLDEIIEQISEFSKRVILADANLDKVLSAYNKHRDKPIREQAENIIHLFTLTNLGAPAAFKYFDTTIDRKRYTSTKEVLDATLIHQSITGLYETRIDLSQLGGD", "assay": "cell_activity; +++; HEK293T; PAM not stated", "how_it_was_run": "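BFP-to-GFP conversion via reverse transcriptase fusion with each Cas endonuclease plus template RNA: 200 ng of each plasmid nucleofected into 250,000 BFP-expressing HEK293T cells (program DS-150). Percent GFP+ cells by flow cytometry at day 4 measured editing.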", "data": [{"binder": "B1", "values": [{"measurement": "activity", "result": "≥ 100 % of reference"}]}]}
